Laboratory results from article PMC10127746, “Genetic Dissection of Budding Yeast PCNA Mutations Responsible for the Regulated Recruitment of Srs2 Helicase” (mBio, 2023).

Legend:
Experiment in all cases: pull-down; GST pulldown; equal molars of GST-Srs2-CT or GST-Rad30-PIP and His6-Pol30 coincubated overnight at 4°C; Western blot with anti-His6 and anti-GST
Conditions in all cases: both partners purified
[1] = biological target: T1, His6-tagged Pol30 (S. cerevisiae, UniProt P15873 1-258)
T1 construct: Pol30 (PCNA), S. cerevisiae, POL30 ORF cloned into BamHI-SacI sites of pET30a; also called His6-Pol30; PCNA; source: E. coli BL21, purified (Ni Sepharose)
T1 sequence (looked up): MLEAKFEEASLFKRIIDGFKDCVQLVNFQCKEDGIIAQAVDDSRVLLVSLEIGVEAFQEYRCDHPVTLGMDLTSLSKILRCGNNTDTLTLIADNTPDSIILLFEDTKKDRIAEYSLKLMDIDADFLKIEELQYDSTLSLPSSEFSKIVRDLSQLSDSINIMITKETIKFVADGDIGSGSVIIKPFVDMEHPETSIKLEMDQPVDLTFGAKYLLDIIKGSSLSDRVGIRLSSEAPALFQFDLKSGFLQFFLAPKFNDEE

[2] = biological target: T2, His6-tagged Pol30-K164R (S. cerevisiae, UniProt P15873 1-258, K164R)
T2 construct: Pol30 (PCNA), S. cerevisiae, POL30 ORF in pET30a, mutant derivative; The methods describe only the wild-type pET-Pol30; source: E. coli BL21, purified (Ni Sepharose)
T2 sequence (looked up): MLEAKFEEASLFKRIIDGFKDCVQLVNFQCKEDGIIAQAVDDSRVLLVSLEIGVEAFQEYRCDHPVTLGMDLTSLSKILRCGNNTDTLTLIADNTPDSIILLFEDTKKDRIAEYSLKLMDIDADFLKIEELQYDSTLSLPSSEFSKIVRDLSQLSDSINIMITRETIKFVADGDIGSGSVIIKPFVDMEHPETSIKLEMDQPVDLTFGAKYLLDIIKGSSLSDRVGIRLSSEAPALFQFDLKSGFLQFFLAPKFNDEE

[3] = biological target: T3, His6-tagged Pol30-A171D (S. cerevisiae, UniProt P15873 1-258, A171D)
T3 construct: Pol30 (PCNA), S. cerevisiae, POL30 ORF in pET30a, mutant derivative; The methods describe only the wild-type pET-Pol30; source: E. coli BL21, purified (Ni Sepharose)
T3 sequence (looked up): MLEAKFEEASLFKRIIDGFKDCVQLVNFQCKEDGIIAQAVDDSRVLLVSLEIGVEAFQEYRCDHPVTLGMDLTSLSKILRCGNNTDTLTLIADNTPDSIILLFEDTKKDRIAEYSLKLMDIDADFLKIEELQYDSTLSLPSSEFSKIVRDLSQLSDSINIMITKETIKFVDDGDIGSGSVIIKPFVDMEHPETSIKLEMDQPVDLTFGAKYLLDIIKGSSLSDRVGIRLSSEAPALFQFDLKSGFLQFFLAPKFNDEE

[4] = biological target: T4, His6-tagged Pol30-I128A (S. cerevisiae, UniProt P15873 1-258, I128A)
T4 construct: Pol30 (PCNA), S. cerevisiae, POL30 ORF in pET30a, mutant derivative; source: E. coli BL21, purified (Ni Sepharose)
T4 sequence (looked up): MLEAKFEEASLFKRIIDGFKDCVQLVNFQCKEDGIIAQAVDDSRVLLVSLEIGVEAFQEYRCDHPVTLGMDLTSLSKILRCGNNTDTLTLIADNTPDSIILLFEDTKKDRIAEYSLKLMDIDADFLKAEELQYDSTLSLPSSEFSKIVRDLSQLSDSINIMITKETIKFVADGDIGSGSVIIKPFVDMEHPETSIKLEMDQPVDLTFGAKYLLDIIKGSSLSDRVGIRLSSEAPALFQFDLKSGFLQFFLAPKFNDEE

Measured: binding result

B1: GST-tagged Rad30-PIP (domain or fragment, S. cerevisiae, UniProt Q04049 515-632, looked up)
chain: VVDMFGNQVHTFKSSAGKEDEEKTTSSKADEKTPKLECCKYQVTFTDQKALQEHADYHLALKLSEGLNGAEESSKNLSFGEKRLLFSRKRPNSQHTATPQKKQVTSSKNILSFFTRKK
notes: Rad30 (DNA polymerase eta), S. cerevisiae, residues 515 to 632, cloned into BamHI-EcoRI sites of pGEX6; also called GST-Rad30-PIP; Rad30-PIP domain; source: E. coli BL21, purified (glutathione Sepharose)
binds: all assays above

B2: GST-tagged Srs2 C-terminal domain (Srs2-CT) (domain or fragment, S. cerevisiae, UniProt P12954 1107-1174, looked up)
chain: HNPDDTTVDNRPIISNAKFLADAAMKKTQKFSKKVKNEPASSQMDIFSQLSRAKKKSKLNNGEIIVID
notes: Srs2 DNA helicase, S. cerevisiae, residues 1107 to 1174, cloned into BamHI-EcoRI sites of pGEX6; Holds the atypical PIP box and the SIM; also called GST-Srs2-CT; Srs2 C terminus; source: E. coli BL21, purified (glutathione Sepharose)
binds: [1] | [2] | [4]
